± gives the standard error. Fewer inactive variants are shown than the library holds.
B1: glmS ribozyme (parent)
chain: AUAAAAGCGCCAGAACUACAGAAAUGUAGUUGACGAGGAGGAGGUUUAUCGAAUUUUCGGCGGAUGCCUCCAAA

Tests used:
Details in all cases: with glucosamine-6-phosphate
glucosamine-6-phosphate [1] = variants of: B1; test: self-cleavage kobs at 40 uM GlcN6P; higher = faster cleavage; RNA array
Method in brief: (§1)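 kobs was derived by fitting per-tile medians to one- or two-exponential decays after normalising signals to baseline and to non-cleaving reference variants. Those signals came from barcoded ribozyme variants transcribed in situ by E. coli RNA polymerase on sequenced MiSeq chips, followed through a hybridised Cy3 probe at 37 °C and imaged over ~14 h. Glucosamine-6-phosphate (40 μM to 10 mM) in HEPES/KCl/Mg(OAc)2 buffer was flowed in. Weighted Michaelis–Menten fits across concentrations then gave kcat and KM.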

glucosamine-6-phosphate [2] = variants of: B1; test: self-cleavage kobs at 640 uM GlcN6P; higher = faster cleavage; RNA array
Method in brief: as §1

glucosamine-6-phosphate [3] = variants of: B1; test: self-cleavage kobs at 10000 uM GlcN6P; higher = faster cleavage; RNA array
Method in brief: as §1

glucosamine-6-phosphate [4] = variants of: B1; test: self-cleavage kobs at 2500 uM GlcN6P; higher = faster cleavage; RNA array
Method in brief: as §1

glucosamine-6-phosphate [5] = variants of: B1; test: self-cleavage kobs at 160 uM GlcN6P; higher = faster cleavage; RNA array
Method in brief: as §1

Row | Variant | self-cleavage kobs at 40 uM GlcN6P (glucosamine-6-phosphate [1]) | self-cleavage kobs at 640 uM GlcN6P (glucosamine-6-phosphate [2]) | self-cleavage kobs at 10000 uM GlcN6P (glucosamine-6-phosphate [3]) | self-cleavage kobs at 2500 uM GlcN6P (glucosamine-6-phosphate [4]) | self-cleavage kobs at 160 uM GlcN6P (glucosamine-6-phosphate [5])
1 | AUAAAAGCGCCAGAACUACAGAAAUGUAGUUCACGAGCAGGAGGUUUAUCGAAUUUUCGCCGGAUGGCUCCAAA [G32C G38C G60C C67G] | < 1e-05 s⁻¹ | < 1e-05 s⁻¹ | < 1e-05 s⁻¹ |  | 
2 | AUAAAAGAGCCAGAACUACAGAAAUGUAGUUGUCGAGGAAGAGGUUUAUCGAAUUUUCGGCGGGUGCAUCCAAA [C8A A33U G40A A64G C68A] | < 1e-05 s⁻¹ | < 1e-05 s⁻¹ | < 1e-05 s⁻¹ | < 1e-05 s⁻¹ | 
3 | AUAAAAGCCCCAGAACUACAGAAAUGUAGUUGACGAGGAGGAGGUUUAUCGUAUUUUCGGCGGAUGCCUCCAAA [G9C A52U] | < 1e-05 s⁻¹ | < 1e-05 s⁻¹ | < 1e-05 s⁻¹ | < 1e-05 s⁻¹ | < 1e-05 s⁻¹
4 | AUAAAAGCGCCAGAACUACAGAAAUGUAGUUGACAAGGAGGAGGUUUAUCCAAUUUUCGGCGGAUGCCUCCAAA [G35A G51C] | < 1e-05 s⁻¹ | < 1e-05 s⁻¹ |  | < 1e-05 s⁻¹ | 
5 | AUAAAAGCGCCAGAACUACAGAAAUGUAGUUGACGAGGAGGAGGUUUAUCGAACGUUCGGCGGAUGCCUCCAAA [U54C U55G] | 0.00056 ± 0.00017 s⁻¹ | 0.00482 ± 0.0012 s⁻¹ | 0.0366 ± 0.018 s⁻¹ | 0.00712 ± 0.0021 s⁻¹ | 0.000955 ± 0.00031 s⁻¹
6 | AUAAAAGCGCCAGAACUACAGAAAUGUAGUUGACGAGGAGGACGUUUAUCGAAUUUUCGGCCGAUGCCUCCAAA [G43C G62C] | < 1e-05 s⁻¹ | < 1e-05 s⁻¹ |  | < 1e-05 s⁻¹ | < 1e-05 s⁻¹
7 | AUAAAAGCGCCAUCACUACAGAAAUGUAGUUGACUAGGAGGAGGUUUAUCGAAUUUUCCGCGGAUGCCUCCAAA [G13U A14C G35U G59C] | < 1e-05 s⁻¹ |  |  |  | 
8 | AUAAAAGCGCCAGAACUACAGAAAUGUAGUUAACGAGGAGGAGGUUUAUCAAAUUUUCGGCGGAUGCCUCCAAA [G32A G51A] | < 1e-05 s⁻¹ | < 1e-05 s⁻¹ | < 1e-05 s⁻¹ |  | < 1e-05 s⁻¹
9 | AUAAAAGCGCCAGAACUACAUAAAUGUAGCUGACGAGGAGGAGGUUUAUCGAAUUUCCGGCGGAUCUCUCCAAA [G21U U30C U57C G66C C67U] | < 1e-05 s⁻¹ |  |  |  | 
10 | AUAAAAGCGCCAGAACUACAUAAAUGUAGUUGACGAGGGGGAGGUUUAUCGAAUUUUCGGCGGAUGCCUCCAAA [G21U A39G] | 0.00105 ± 0.00032 s⁻¹ |  |  |  | 
11 | AUAAAAGCGCCUGAACUACAGAAAUGUAGUUGCCGAGGAGGCGGUUUAUCGAAUUUUCGGCGGAUGCCUCCAAA [A12U A33C A42C] | < 1e-05 s⁻¹ |  |  |  | 
12 | AUAAAAGCGCCAGAACUACAGAAAUGUAUUUGACGAGGAGGAGGUUUAACGAAUUUCCGGCGGAUGCCUGCAAA [G29U U49A U57C C70G] | < 1e-05 s⁻¹ |  |  |  | 
13 | AUAAAAGCGCCAGAACUACAGAAAUGUAGUUGACAAGGAGGAGGUUUAUCGAAUUUUCGGCGGACGCCUCCAAA [G35A U65C] | < 1e-05 s⁻¹ | < 1e-05 s⁻¹ | < 1e-05 s⁻¹ | < 1e-05 s⁻¹ | < 1e-05 s⁻¹

From the supplement of paper PMC7125110
